Numbering of substitutions follows the chain as printed.
T1: recombinant human FGFR3 IIIb Fc fusion protein (human, UniProt P22607-2 23-377, limits assumed)
T1 construct: Bought reagent; the IIIb splice isoform is meant; also called rhFGFR3 IIIb Fc; hFGFR3 IIIb; not shown: Fc fragment (removable by Factor Xa, detected with anti-human IgG)
T1 sequence (looked up): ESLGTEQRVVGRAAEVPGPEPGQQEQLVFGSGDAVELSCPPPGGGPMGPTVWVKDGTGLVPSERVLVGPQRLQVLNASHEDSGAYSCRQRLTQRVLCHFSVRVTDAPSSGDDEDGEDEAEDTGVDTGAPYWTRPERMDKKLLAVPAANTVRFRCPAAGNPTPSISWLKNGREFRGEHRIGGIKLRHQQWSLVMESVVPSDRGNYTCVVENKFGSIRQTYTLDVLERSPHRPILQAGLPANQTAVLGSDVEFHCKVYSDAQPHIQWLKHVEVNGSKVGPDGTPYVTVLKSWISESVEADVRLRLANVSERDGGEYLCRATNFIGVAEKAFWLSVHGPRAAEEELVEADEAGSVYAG

T2: recombinant human FGFR3 IIIc Fc fusion protein (human, UniProt P22607 23-375)
T2 construct: Bought reagent; also called rhFGFR3 IIIc Fc; not shown: Fc fragment (removable by Factor Xa)
T2 sequence (looked up): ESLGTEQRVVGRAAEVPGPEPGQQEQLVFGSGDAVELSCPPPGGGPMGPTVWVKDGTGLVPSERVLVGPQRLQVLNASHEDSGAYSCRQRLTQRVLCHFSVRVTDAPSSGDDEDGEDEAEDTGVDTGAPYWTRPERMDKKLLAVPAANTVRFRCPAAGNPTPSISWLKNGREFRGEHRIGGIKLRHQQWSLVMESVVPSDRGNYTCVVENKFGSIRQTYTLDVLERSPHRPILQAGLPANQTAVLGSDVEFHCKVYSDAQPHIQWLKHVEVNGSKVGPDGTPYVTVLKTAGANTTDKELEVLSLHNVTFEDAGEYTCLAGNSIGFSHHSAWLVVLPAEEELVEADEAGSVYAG

B1: anti-FGFR3 monoclonal antibody 4E7 (antibody, mouse IgG1, kappa, V domains shown)
VH: EIQLQQSGPELVKPGASVKVSCKASGYAFTSYNMYWVKQSHGKSLEWIGYIDPYNGGTRYNQKFKGKATLTVDKSSSTAYMHLNSLTSEDSAVYYCAREGGNYEAWFAYWGQGTLVTVSA
VL: QIVLTQSPALMSASPGEKVTMTCSASSSVSYMYWYQQKPRSSPKPWIYLTSNLASGVPARFSGSGSGTSYSLTISSMEAEDAATYYCQQWSSNPLTFGAGTKLELKR
notes: Murine IgG1/kappa from hybridoma; also called 4E7 IgG1; 4E7 (7D12)
B2: anti-FGFR3 monoclonal antibody 27H2 (antibody, mouse IgG1, kappa, V domains shown)
VH: B1 VH with L70M
VL: B1 VL
notes: Murine IgG1/kappa from hybridoma; also called 27H2 IgG1; murine antibody 27H2
B3: anti-FGFR3 monoclonal antibody 2G4 (antibody, mouse IgG1, kappa, V domains shown)
VH: B1 VH with Y60D
VL: B1 VL
notes: Murine IgG1/kappa from hybridoma; also called 2G4 IgG1; murine antibody 2G4
B4: Humanized 15D8 (antibody, human IgG1, kappa, V domains shown)
VH: EVQLVQSGAEVKKPGESLKISCKGSGYSFTSYNMYWVRQMPGKGLEWMGYIDPYNGGTSYNQKFKGKATLTVDKSISTAYLQWSSLKASDTAMYYCAREGGNYEAWFAYWGQGTLVTVSS
VL: DIQLTQSPSSLSASVGDRVTITCSASSSVSYMYWFQQKPGKAPKPLIYLTSYLASGVPSRFSGSGSGTDFTLTISSLQPEDFATYYCQQWSSYPLTFGGGTKVEIKR
notes: Humanized variable regions with human IgG1 and human kappa constant regions; made in 293T cells; also called Hu15D8; humanized 15D8 antibody
B5: Chimeric 15D8 (antibody, human IgG1, kappa)
heavy: not shown
light: QIVLTQSPALMSASPGEKVTMTCSASSSVSYMYWYQQKPRSSPKPWIYLTSYLASGVPARFSGSGSGTSYSLTISSMEAEDAATYYCQQWSSYPLTFGAGTKLELKRTVAAPSVFIFPPSDEQLKSGTASVVCLLNNFYPREAKVQWKVDNALQSGNSQESVTEQDSKDSTYSLSSTLTLSKADYEKHKVYACEVTHQGLSSPVTKSFNRGEC
notes: Mouse variable regions with human IgG1 and human kappa constant regions; made in 293T cells; also called chimeric 15D8 antibody
B6: anti-FGFR3 monoclonal antibody 7D12 (antibody, mouse IgG1, kappa, V domains shown)
VH: B1 VH
VL: B1 VL
notes: Murine IgG1/kappa from a separate hybridoma; also called 7D12 IgG1; 4E7 (7D12)
B7: 7D12 Fab (Fab, V domains shown, not shown: a dimerising Fc or GST)
VH: B1 VH
VL: B1 VL
notes: preparation not described; also called anti-FGFR3 Fab fragment 7D12
B8: 4E7 Fab (Fab, V domains shown, not shown: a dimerising Fc or GST)
VH: B1 VH
VL: B1 VL
notes: Fab fragment of murine 4E7; preparation not described; also called anti-FGFR3 Fab fragment 4E7
B9: 27H2 Fab (Fab, V domains shown, not shown: a dimerising Fc or GST)
VH: B1 VH with L70M
VL: B1 VL
notes: Fab fragment of murine 27H2; preparation not described; also called anti-FGFR3 Fab fragment 27H2
B10: 15D8 Fab (Fab, V domains shown, not shown: a dimerising Fc or GST)
VH: B1 VH with R59S
VL: B1 VL with N52Y, N93Y
notes: Fab fragment of murine 15D8; preparation not described; also called anti-FGFR3 Fab fragment 15D8
B11: 2G4 Fab (Fab, V domains shown, not shown: a dimerising Fc or GST)
VH: B1 VH with Y60D
VL: B1 VL
notes: Fab fragment of murine 2G4; preparation not described; also called anti-FGFR3 Fab fragment 2G4

target: T1, recombinant human FGFR3 IIIb Fc fusion …; assay: SPR (Biacore T100), antibody captured on anti-mouse Ig, rhFGFR3 IIIb Fc as analyte, 25 C
Procedure: (§1) The binding affinities and kinetics of interaction of the monoclonal antibodies (15D8, 27H2, 2G4, and 4E7(7D12)) produced in Example 1 against recombinant human FGFR3 (IIIb and IIIc isoforms) Fc fusion protein (rhFGFR3 IIIb Fc or rhFGFR3 IIIc Fc) were measured by surface plasmon resonance using a Biacore™ T100 (Biacore) instrument.
(§2) Rabbit anti-mouse immunoglobulins (Biacore, Catalog No. BR-1005-14) were immobilized on carboxymethylated dextran CM4 sensor chips (Biacore, Catalog No. BR-1005-34) by amine coupling (Biacore, Catalog No. BR-1000-50) using a standard coupling protocol according to manufacturer's instructions.
(§3) The antibodies were captured in an individual flow cell at a flow rate of 10 μl/min. Injection time was varied for each antibody to yield approximately 40-50 RU of antibody captured for each cycle. Buffer or rhFGFR3 IIIb Fc (R&D Systems, Catalog No. 1264-FR-050) or rhFGFR3 IIIc Fc (R&D Systems, Catalog No. 766-FR-050) diluted in running buffer was injected sequentially over a reference surface (no antibody captured) and the active surface (antibody to be tested) for 300 sec at 60 μl/min. The dissociation phase was monitored for 30 minutes. The surface was then regenerated with two 60-seconds injection of 10 mM Glycine-HCl, pH 1.7 (made from Glycine pH 1.5 (Biacore, Catalog No. BR-1003-54) and pH 2.0 (Biacore, Catalog No. BR-1003-55)) at a flow rate of 60 μl/min. rhFGFR3 Fc concentrations tested were 0.62 nM to 40 nM.

| Binder | Kd [nM] | koff [s⁻¹] | kon [M⁻¹ s⁻¹] |
| --- | --- | --- | --- |
| B1 | 3.3 | 0.00037 | 150000 |
| B2 | 3 | 0.00026 | 90000 |
| B3 | 3.2 | 0.00032 | 120000 |

target: T2, recombinant human FGFR3 IIIc Fc fusion …; assay: SPR (Biacore T100), antibody captured on anti-mouse Ig, rhFGFR3 IIIc Fc as analyte, 25 C
Procedure: as §1, §2, §3

| Binder | Kd [nM] | koff [s⁻¹] | kon [M⁻¹ s⁻¹] |
| --- | --- | --- | --- |
| B1 | 2.6 | 0.00019 | 110000 |
| B2 | 2.1 | 0.00016 | 75000 |
| B3 | 1.1 | 0.00011 | 100000 |

target: T1, recombinant human FGFR3 IIIb Fc fusion …; assay: SPR (Biacore T100), antibody captured on anti-mouse Ig, rhFGFR3 IIIb Fc as analyte, 37 C
Procedure: as §1, §2, §3

| Binder | Kd [nM] | koff [s⁻¹] | kon [M⁻¹ s⁻¹] |
| --- | --- | --- | --- |
| B1 | 3.3 | 0.00023 | 74000 |
| B2 | 2.1 | 0.00019 | 100000 |
| B3 | 1.4 | 0.00023 | 150000 |

target: T2, recombinant human FGFR3 IIIc Fc fusion …; assay: SPR (Biacore T100), antibody captured on anti-mouse Ig, rhFGFR3 IIIc Fc as analyte, 37 C
Procedure: as §1, §2, §3

| Binder | Kd [nM] | koff [s⁻¹] | kon [M⁻¹ s⁻¹] |
| --- | --- | --- | --- |
| B1 | 2.2 | 0.00017 | 94000 |
| B2 | 2.1 | 0.0002 | 96000 |
| B3 | 2.6 | 0.00026 | 100000 |

target: T2, recombinant human FGFR3 IIIc Fc fusion …; assay: kinetic exclusion assay (KinExA), antibody and rhFGFR3 IIIc Fc in solution, room temperature
Procedure: The binding affinities of monoclonal 15D8, chimeric 15D8, and humanized 15D8 antibodies for recombinant human FGFR3 IIIc Fc fusion protein was measured using a kinetic exclusion assay, KinExA® technology (Sapidyne Instruments, Inc.). First, beads were prepared for the purpose of detecting anti-FGFR3 antibody that is unbound to FGFR3 IIIc Fc. This was done by adding 1 ml recombinant human FGFR3IIIc Fc (R&D Systems, Inc.) 10 ug/ml in PBS to 200 mg polymethyl methacrylate (PMMA) hard beads. The suspension was mixed and rotated for two hours at room temperature. Next, the mixture was centrifuged and supernatant was discarded. The bead pellet was rinsed once with 1 ml BSA 10 mg/ml in PBS by incubation for 1 hour at room temperature with rotation. The beads were resuspended in 27 ml PBS with 0.02% NaN₃. Next, a fixed concentration of anti-FGFR3 antibody (0.5 nM) was incubated in solution with a series of FGFR3 IIIc Fc concentrations (started with 50 nM (in PBS BSA (1 mg/ml)) and serially diluted 1:2 in PBS BSA(1 mg/ml) to obtain 50 to 0.0122 nM FGFR3 III Fc) at room temperature for at least 4 hours to allow equilibrium to be reached. By measuring the amount of anti-FGFR3 antibody that is not bound to FGFR3 IIIc Fc, the KD was determined. Unbound anti-FGFR3 antibody was detected by allowing the anti-FGFR3 antibody/FGFR3 IIIc Fc solution to flow through the FGFR3 IIIc Fc PMMA beads. The anti-FGFR3 antibody captured by these beads was then detected with Cy5-conjugated anti-human secondary antibody 0.3 ug/ml (Jackson ImmunoResearch) or Cy5-conjugated anti-mouse secondary antibody (Jackson ImmunoResearch) 0.5 ug/ml in PBS BSA 1 mg/ml. The detected signal for captured anti-FGFR3 antibody is directly proportional to the remaining free binding sites, thus allowing KD determination. The experiments were repeated, varying the concentrations of anti-FGFR3 antibody or FGFR3 III Fc used in solution, and the KD was calculated with the KinExA® software using n-curve analysis.

| Binder | Kd [nM] |
| --- | --- |
| B4 | 0.0772 |
| B5 | 0.0503 |

target: T1, recombinant human FGFR3 IIIb Fc fusion …; assay: ECL competition assay: inhibition of rhFGFR3 IIIb Fc binding to coated FGF1 (competitor FGF1)
Procedure: The antibodies were tested by ECL (Electrochemiluminescence) assay for inhibition of hFGFR3 IIIB binding to FGF-1. […] The plates then were washed 3 times with PBS and blocked with 200 μl of PBS containing 5% BSA (Sera Care Life Sciences, Catalog No. AP-4510-80) and 5 μg/mL heparin (Sigma, Catalog No. H4784) for 1 hour at room temperature. The antibodies (concentration range: 0.029-30 μg/mL) were incubated for 1 hour at room temperature with 1.7 μg/mL rhFGFR3 IIIb Fc (R&D Systems, Catalog No. 1264-FR-050) and 5 μg/mL heparin. After washing the plates 3 times with PBS, 25 μl of the antibody-receptor mixture was added to the plates for another hour at room temperature with agitation. The plates were washed three times with PBS and incubated with 25 μl of 1 μg/mL ST-anti-human IgG antibody (Meso Scale Discovery, Catalog No. R32AJ-1) for 1 hour at room temperature with agitation. The plates then were washed 3 times with PBS, and 150 μl of 1× read buffer (Meso Scale Discovery, Catalog No. R92TC-1) was added to each well before the plates were analyzed on a Sector Imager 2400 (Meso Scale Discovery) instrument.

| Binder | IC50 [nM] | Maximum Neutralization (%) |
| --- | --- | --- |
| B1 | 18.5 | 91.2 |
| B6 | 13.3 | 93.9 |
| B7 | 50 | 88.8 |
| B8 | 69.5 | 92.2 |
| B2 | 15.4 | 99.6 |
| B3 | 11.1 | 64.9 |
| B9 | 53.5 | 95.8 |
| B10 | 63.8 | 91.7 |
| B11 | 65 | 96.2 |

Source: patent publication US20100003258A1 (AVEO PHARMACEUTICALS, published 2010)
